{"source": "paper PMC6200739", "key": {"[1]": {"target": "Flag-tagged LDHA containing a nuclear localization signal peptide", "test": "cross-linking"}, "[2]": {"target": "Flag-tagged LDHA containing a nuclear localization signal peptide", "test": "SEC"}}}
{"substance": "Flag-tagged LDHA containing a nuclear localization signal peptide (enzyme)", "values": [{"measurement": "stoichiometry N", "setting": "[1]", "result": 2}, {"measurement": "stoichiometry N", "setting": "[2]", "result": 2}]}
